Among the data in paper doi:10.1101/2020.01.21.914671 are fold reduction in binding against wild type TANV16L values, retold here.

Experiment in all cases: ITC
In test [1] the target is human Bad BH3 motif peptide (26-mer) (human).
The target of test [2] is human Bmf BH3 motif peptide (26-mer) (human).
Test [3] addresses human Hrk BH3 motif peptide (26-mer) (human).
The target in test [4] is human Puma BH3 motif peptide (26-mer) (human).

As for “TANV16L K52A lacking the C-terminal 23 residues (domain or fragment)”, the fold reduction in binding against wild type TANV16L was determined as 27 fold in test [1] and 20 fold in test [2].

As for “TANV16L R90A lacking the C-terminal 23 residues (domain or fragment)”, the fold reduction in binding against wild type TANV16L in test [3] and in test [4] was 2 fold in each case.
